Reference: the DeepSol protein solubility set

Assay: soluble on expression in E. coli; label from the status in PepcDB or PDB records

Sequence | soluble on expression in E. coli
DSDWEDIHYAYFSAICQARKNVYIETPYFIPDESLLKAIKSAALSGVDVRIIFPKIADHKIVNIASYSYFEEILRAGGKVYLYNKGFIHSKVVIIDDKIASAGTANMDLRSFMLNFEVNAFIYDEEVIRVMTDDFFEDLSYCEELNLEVFKNR | not soluble
MESSGKSSANPNLLAETLTTMQAQLQTQTEISQQVMEDNKNQSALLKQQREMSQALLEENKRLRAAQGDQPRFVAVGEKPLNSVKLMSDLLRQLPKYHFDVSEPDSFTKWWARHKLTFTEDGAELSNRERNRMLVARLEESTFQRFVDSQRDVEDIYSVPVEDTIKALSKSFGSQRSLMIRRQSCLLISRASGASMDPLEYTNLVGEAVLDAKLSNMSTDDWSIFIFLRGMDAPEDALAKRYLMQYYEQFERKDEKLKLSDVHDEWIRYIQTQQQSKVITVTPARHPKFEVNQVDADDKKKDSRKGNYRPPYCYKCKVVGHVSKDCPQSSTNSGVTNRKTEHSEVNTLEVGSGRQTSPSLRLNVEGQQIDFTFDTGSDITLISVQNWQKIGKPHLEKVHHKICCANGTEIAVKGRVLVWFKVKGVEYTEYVYVWNRNNNLLGTSWMRHSPQMRDALAVMVNHISTVDNSKQNSHSFSRIPTGYKDRAENVGRHVVASAPRSSKRQYVRFARNKAFQIGQLCLARVQGEHDFGWIYGVVQRQVNGVLYEVQLGSRIQRIHTNQLRHICGRRSRGNDYASSFIENPCKLSLLENIPRSSCRQKFVAQGVRGEGREANPVLVSDSSVFGFSAPDLSACESVGSRSAREVVSSVAGNARNASGANITTIHVTESKSSLKKSHRRRRRVAKSRQSYTAGSSPIKETHLDPLLESDVASDGERFQPGILLRHSLRQSHPRQVVRGSAPNTDHVSTRRRGRDTASGRDAPSPGIISGFLSYKRGDVVDGT | soluble
MEAASIAVPGAGASLRAQALDALMTPAWADKLAAVAAIDAGAPVGAQQDLAEPAGLPGRPPAPQLVPPSQVRQRSVQSPEGRAALLHALAHIEFNAINLALDAVWRYGGLPDAYYLDWLKVAREEAYHFDLLNRHLSGLGHAYGDFPAHNGLWEMAEKTRADLLARLALVPRTLEARGLDASPLIRDKLAAAGDADGAAILEIILRDEIGHVAIGNHWYKALCAQRGLDPVAQYAQLASRYGAPRLRGPFNLEARRAAGFDEDELRALLQAKLAAALEHHHHHH | soluble
MSLTTILDIAKLAGVAKSTVSRYLNGGSVSEPTRQKIERVIKETGYIPNAFAQSLKAKQTNFIGTIVPRLDSFAASRTVMGIDDELKSLGYQMLMSNTDQSVEREIETIYNLANQKIAGVILLATVITKEHLNAFREVGIPTLLVGQEHTEVPCLIHDDFKAGYEMGKHVLSKGHKRIAYLGVGEHDIAVGVKRKEGFKQAMAEHGPCEVAYFETSFSMQDSFRVSPKMIETYQPSALVCATDNIALGALKGAYSIGMNVPKDLSITGFGGYEVTGIIHPSLTTVNFHFKAAGKMAARKMIKLMNGEEVNHLTRMDVELIERESVDNEGHHHHHH | soluble
MSLYKAYLIDLDGTMYRGAEVIPEAIIFIENLKRAGLPYLFVTNNSTKTPGQVAEHLTDMGIQAVSDDVFTTSQATVQFMMEQKREKTVYVIGERGIKQELTDNGFEITSSNPAFVVVGLDREVDYEKFSKAALAVRGGAMFISTNGDAAIPTERGLLPGNGSITSVVSVATETAPIFIGKPESIIMEQALAKLGVHKDEAIMVGDNYETDIMAGINYGMDTLIVHTGFTSKEALLTKEIQPTYAVTKLTDWEFNEGHHHHHH | not soluble
SIKNGILYLEDPVNHEWYPHYFVLTSSKIYYSEETSSDQGNEDEEEPKEASGSTELHSSLEVLFQGPNPAILEPEREHLDENSPLGDLLRGVLDVPACQIAIRPEGKNNRLFVFSISMPSVAQWSLDVAADSQEELQDWVKKIREVAQTA | soluble
MGSDKIHHHHHHMNRKGNLSMTTQLQHLTLPEDIQQKLLSYKEQPISPEFQSLIGTSGYEAEDEAILFDAIIALAMGKNVLLKGPTGSGKTKLAETLSSYFHKPMHSVNCSVDLDAEALVGYKTIENQSGQATIEFVSGPVTKAMKEGHFLYIDEINMAKPETLPILNGVLDYRKMMTNPFTGEVIRAKSGFGVIAAINEGYVGTVPLNEALKNRFVIIDVPYIKGELLKQVLMSQSALKDEKLIDRFITLSSDLIVQANNGQVSEEAASIRALIDTCDLAAYIPPRRAIERGIVEKLDDDREKAAVRNIAETLFE | not soluble
MNNQLTEITVVRRQSAPRLEFEAAAIYEYPEHLRPFLSEAPALPGVYIFHSESDTLPLYIGKSVNIRSRVLSHLRTPDEATMLRQARRISWICTAGEMGALLLEARLIKEQQPLFNKRLRRNRQLCSLQLSEQKIEVVSARSVDFSHEPNLFGLFANRRAALQSLQNLADEQKLCYGLLGLEPVSRGRACFRFALKRCAGACCGQETPQAHFLRLQASLERLRVVCWPWKGAIALKESRPQMTQFHIINNWLWLGAVPSLDEAATLVRTPAGFDQDGYKILCKPLMSGQYEIIELHTDCRQS | not soluble
MFAIISVTGADHTGIIAAVATKCADLGVNINNVSQTIMDGYFTMILHVSFDDSATDIATIQESMADVEKDQNLVIRIQSQAIFDAMNII | not soluble
MPERFVEMLREENGKIIVRIPGETARYANLEGKEGEYLLVDLVKVFDPHLKLPTHSIGEKAICRTVTFRDNRGYEHLGLEIPQELVNDYGMKAGEYLEAVIEHAILRDKIAAVYPNLEILNQYPYWWRKISQ | not soluble
MGSDKIHHHHHHMKRLDGIPESMLIPLIARAKEYEYEKPIIKDALSKKIFDGLDDIYKNVTCDDMSQIGISIRSVIIDSVTKRLIKDNKNLIVINIGCGLDTRFQRFNNEKISWIDLDVPESIEIRKTFFKETDSYKMIAKSMLDYSWIEDVINYKFFNSKSNILFIFEGVLMYFDESVMTKLLHTIIKKFGDHNLTFAIEFCSKTIANNTKRHKSVSKLSSQPVFKYGYNDLNELDKVLPNKMKVINEYNYFDYHKKRWGLFGYCRYIPYLKKRLNNKIVIMEYKPAKLITHN | not soluble
MGSDKIHHHHHHMVNEKRLLEEFLELVQIDSETKHEAEICKVLKRKFSDLGVDVKEDDTMDITGHGAGNLICTLKGTKQTDTIYFTSHMDTVVPGNGVKPVVENGYVKTDGTTILGADDKAGLAAMFEAIKVLKEENIEHGTIEFIITVGEESGLIGAKALDRPMITASYGYALDSDGKVGNIIVAAPTQAKVRAAIFGKTAHAGVEPEKGISAITIASKAISKMPLGRIDEETTANIGRFEGGTQTNIVCDEVHILAEARSLVPEKMEAQVQKMKAAFEEAAADMGGRAEVEIEVMYPGFKYQDGDQVVEIAKKAAAKIGRPSELQTSGGGSDANVIAGHGIPTVNLAVGYEQIHTKNEKMPIEELVKTAEMVVAIIEEAAK | not soluble
SGRPLEGQPLRALDLYPEPAFLRSGKDPKSSPASSPSFAVLGPEVRSTGGQAGSRRRPSAPCSQDRAAAEGAPALLGGSPSSGSPGHPPGSAFGVEAGCRALNVSEHARGGFALGLPFGLSGGAYLFLLLDGAGDPKPTPEAPISSADGRAWFPSESSWQLPQLPAGSTSGSEPRARPGLGPRQLPTGPRDGAAGQGPGRGLTARLGREREIDCGPRQAGHGGTATDTGRAGSGARHRPPRDRGTPGLRTH | soluble
MSLELLSNRLEFLREAERLKDVLRSAHTSSGRPESTAEHSWRLCLMALAFEDQLAGLDLGKVLRMCVVHDLGEAIHGDIPAVEQAAHPDKGEQERADLLQLTRHLDAPLRDRLLALWDEYERGESAEALAVKALDKLETLLQHTQGDNPADFDYAFNLDYGRRYTDRAPLFKTLRELLDARTRQRLAVRRDA | not soluble
MSLSEELQQKLRDQLWEVANRLRGNMSASDFMYFTLGFIFYKYLSEKIEKYANNALADDDITFKELWETDDADAIELQEEAKNQCLENIGYFIEPQFLFSSVIEAIKRKENILPMLERSLKRIEDSTLGQDSEDDFGGLFSDIDLASPKLGKTADDKNTLVSNVLLALDDINFGLEASQEIDILGDAYEYMISQFAAGAGKKAGEFYTPQEVSRILAEIVAIGHQRLRNVYDPTCGSGSLLLRAASIGNAVDIYGQEKNPTTYNLARMNMLLHGIRFSNFKIENGDTLEWDAFGDTQFDAVVANPPFSAEWSAADKFNTDDRFSKAGRLAPRKTADYAFILHMIYHLNEGGTMACVAPHGVLFRGNAEGVIRRFLIEKKNYVDAIIGLPANIFYGTSIPTCILVFKKCRKEDDNILFIDASKEFEKVKTQNKLREQHIQKIVETYRDRKEIEKYSHLASLQEIAENDYNLNIPRYVDTFEEEEPIDIKAVMAEIKELEAKRAELDKEIEVYLKELGIVEEGHHHHHH | soluble
MIRIDVVLPAYRPGQGWEREAISRLTALSDSIPDVTFRIFIVPDGSNEGHSDEVRSHWATSPWEVIYCDYAKNRGKGFAVRYGVGQTDAPFVLYTDYDLPFTLDSYKQVIEALLEGADVVISRREPESYGKKIRFKRKMLSDFSHFVNKFFFLPTTDTQGGLKGFSSTGRFIFLQTRIDSFLFDTEFICLAKRKKVCIAVVSGSIRPDISLSVMKAKTILREVYKIPKLIKARWFS | not soluble
EQIVAAYDNSLLYTDHFLVRTIGMLRDMSDYDTAMIYLSDHGESLGEKGLYLHGMPYAIAPVEQTRVPMVIWFSKQFVQSRQIDLNCVHQRARQYADHDNLFSSVLGLMQVKTALYERPHDLFATCEK | not soluble
MGSDKIHHHHHHMVSMIKTAQGYSSELTRDQSELTQFWSQVQQESLAIEPGITLAYGFIRHEDNRRAIVISNGRVESYLKYQELIYDCYQQGFSVYALDHRGQGLSSRLTTNPHQGHVEHFSDYVDDFKVFIERVVKPERHKELFLVGHSMGGAIATHYIHQDPTTFNAAVLSAPMYGIILPLPTVVIKQLATKMINTQPVIGSHLVATNYIIGGRDYQAISFKLNQLTHSQVRYQHYRDLYQQQPQCQLGSPTNQWLAEAIDAAKASIDMARGSPIPLLILQAGKDKIVCNQAQNKALAGLCQRIIIEGAFHEVFIETDKLRDKALKALFDFINQHSEII | not soluble
MGSDKIHHHHHHMRAFVFPGQGSQYSGMAKDFSVYESSKEIFERSKKVLGFDITEIMNGDEETLKLTENAQPSIYITSYIAFLELEKRGILPDVVAGHSLGEYTALAVAGVYDFETGLYLVRKRGEYMSKALEPGKGTMAAVIGLNIETIEEVVNSIEGVYIANYNSHDQVVISGLKESVEKAMEILKEKGARRVVELMVSSPFHTPFLEYAREKMKEEVEKVDFKKPRWPIVMNSTAKPTENPEEIKRNIIEQITGPVLWKQSVDTMKKMGVTEFVEVGPKTVLKNLCRRMGANAKHFTEILSE | not soluble
MEDMYDSFAALSASESEYRIIYEEKNGSELIVLGPHGGRIEPGVSELVRAFSDRCSIYLFEGLKQRNNRSLHLTSIRFDEPLALEKVNDHHYALAFHGYYDPKIPHTLVGGADRKKAKLICERLNEAGFSAELTNEKDRLAGVHPNNIVNRTKREMGLQLEVSTAQRNALFRNFGCRDKSYIQNDLFDRYVEAVKLGFYTLEHHHHHH | soluble
MREAMYWKPLGDGRVRCELCPLRCIIDEGKRGSCKIRINKGGKLYTLNYGKVSSIALDPIEKKPLFHFWPGSCALSIGTVGCNMHCKHCQNWEISQADESFPYLQDATPEAIVSLAKHYECESIAYTYNEPTIWYEFVLDTAKLARKEGLNNILVTNGYINEEPFRELAPYIDAMNIDIKAFDDKFYMKIASVPSGEPSRRIAEIAKKEFKIHVELTYLIIPTLNDKEEEIREFARWVVENLGDDTPVHFSRFFPHYKLLNLPPTPIETLEKAYKIAKEEGLKFVYLGNVPGHPGENTYCPSCGKLLIERWGFDIIRYDIVDGKCKYCGEKIPIVGKYQKKKYRGMWW | soluble
MDKPILKDSMKLFEALGTIKSRSMFGGFGLFADETMFALVVNNQLHIRADQQTSSDFETQGLKPYVYKKRGFPVVTKYYAISSELWESSDRLIEVAKKSLENAKLEKEQQASTKPNRLKDLPNLRLATERMLKKAGIDSVAQLEEEGALSAYKAIRDTHSTTVSLELLWALEGAINGTHWSVVPQSRREELMNGLS | soluble
